Assay results: US20030186853A1, “Novel corticotropin-releasing hormone analogs” (The Regents of the University of California, Office of …, published 2003)
Like-named read-outs stand apart in the source and are kept apart here. Non-standard residues stand in square brackets, D forms with d. No end group written: not given here.

Experiments:
CRH1 receptor [1] = molecular target: T1, CRH1 receptor (mouse, UniProt P35347)
CRH1 receptor [2] = molecular target: T1, CRH1 receptor; test: cell-based or functional assay

Row | Molecule | EC50, inhibition of proliferation of Cloudman melanoma cells (cell count) (CRH1 receptor [1]) | EC50, inhibition of proliferation of Cloudman melanoma cells (cell count) (CRH1 receptor [2])
1 | acetyl-cyclo(30-33)[D-Phe^12, Nle^18, D-Glu^20, Nle^21, Glu^30, D-Ala^32]-urotensin I(4-41) (peptide) | 0.36 picomolar | –
2 | DNPSLSIDLTFHLLRTLLELARTQSQRERAEQNRIIFDSV-NH2 (ligand) [Urocortin (human)] | – | 9.5 picomolar
3 | SEEPPISLDLTFHLLREVLEMARAEQLAQQAHSNRKLMEII-NH2 (ligand) [Corticotropin-releasing hormone (CRH), human/rat] | – | 8.6 picomolar
4 | SEEPPISLDLTFHLLREVL[dE]MARAEQLAQQAHSNRKLMEII-NH2 [[D-Glu^20]-CRH] | – | 16 picomolar
5 | SEEP[dP]ISLDLTFHLLREVLEMARAEQLAQQAHSNRKLMEII-NH2 [[D-Pro^5]-CRH] | – | 82 picomolar
